Results taken from publication PMC9482650, “Quantitative fragmentomics allow affinity mapping of interactomes” (Nature Communications, 2022).

T1: PARD3B_1, Q8TEW8
T1 sequence (Q8TEW8 196-299, limits assumed, looked up): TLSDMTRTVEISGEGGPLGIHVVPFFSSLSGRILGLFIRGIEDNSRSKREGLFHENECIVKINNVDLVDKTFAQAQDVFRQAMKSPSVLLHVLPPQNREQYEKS

T2: LNX2_3, Q8N448
T2 sequence (Q8N448 463-564, limits assumed, looked up): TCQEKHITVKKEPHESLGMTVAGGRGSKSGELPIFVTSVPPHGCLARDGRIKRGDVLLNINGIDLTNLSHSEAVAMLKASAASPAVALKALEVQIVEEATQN

T3: GRIP1_7, Q9Y3R0
T3 sequence (Q9Y3R0 999-1096, limits assumed, looked up): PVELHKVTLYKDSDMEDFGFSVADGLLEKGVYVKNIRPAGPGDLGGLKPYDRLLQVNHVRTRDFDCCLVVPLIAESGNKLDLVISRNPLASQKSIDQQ

T4: ARHGAP21, Q5T5U3
T4 sequence (Q5T5U3 45-169, limits assumed, looked up): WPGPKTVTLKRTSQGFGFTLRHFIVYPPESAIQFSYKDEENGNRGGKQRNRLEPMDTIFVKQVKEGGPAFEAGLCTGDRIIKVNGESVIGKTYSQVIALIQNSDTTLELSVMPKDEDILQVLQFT

T5: GRIP1_2, Q9Y3R0
T5 sequence (Q9Y3R0 145-248, limits assumed, looked up): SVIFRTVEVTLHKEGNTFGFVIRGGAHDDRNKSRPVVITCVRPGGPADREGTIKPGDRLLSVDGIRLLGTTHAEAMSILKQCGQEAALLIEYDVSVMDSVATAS

T6: PCLO, Q9Y6V0
T6 sequence (Q9Y6V0 4491-4600, limits assumed, looked up): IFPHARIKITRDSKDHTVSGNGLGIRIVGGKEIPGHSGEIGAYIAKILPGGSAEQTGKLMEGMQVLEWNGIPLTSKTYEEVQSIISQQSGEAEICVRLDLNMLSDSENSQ

T7: ARHGEF11, O15085
T7 sequence (O15085 42-136, limits assumed, looked up): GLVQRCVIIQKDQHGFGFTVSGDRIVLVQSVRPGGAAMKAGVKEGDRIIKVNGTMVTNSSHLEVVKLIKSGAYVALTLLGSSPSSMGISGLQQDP

T8: MPDZ_12, O75970
T8 sequence (O75970 1857-1958, limits assumed, looked up): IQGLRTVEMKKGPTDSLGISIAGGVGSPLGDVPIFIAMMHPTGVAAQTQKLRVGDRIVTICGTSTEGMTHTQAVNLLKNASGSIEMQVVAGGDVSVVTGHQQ

T9: SIPA1L2, Q9P2F8
T9 sequence (Q9P2F8 945-1036, limits assumed, looked up): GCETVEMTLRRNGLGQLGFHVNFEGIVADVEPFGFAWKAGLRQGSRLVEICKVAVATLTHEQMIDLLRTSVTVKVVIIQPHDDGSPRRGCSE

T10: SNTB1, Q13884
T10 sequence (Q13884 107-205, limits assumed, looked up): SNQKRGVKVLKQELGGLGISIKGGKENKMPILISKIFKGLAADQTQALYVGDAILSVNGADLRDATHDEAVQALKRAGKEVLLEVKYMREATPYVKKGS

T11: MPDZ_10, O75970
T11 sequence (O75970 1624-1722, limits assumed, looked up): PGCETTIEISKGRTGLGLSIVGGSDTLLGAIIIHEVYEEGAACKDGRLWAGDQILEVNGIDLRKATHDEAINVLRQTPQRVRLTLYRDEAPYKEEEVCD

T12: DFNB31_3, Q9P202
T12 sequence (Q9P202 811-907, limits assumed, looked up): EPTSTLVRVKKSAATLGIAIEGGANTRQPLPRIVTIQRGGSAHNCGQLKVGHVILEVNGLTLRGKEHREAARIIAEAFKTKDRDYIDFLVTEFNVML

T13: NHERF3_4, Q5T2W1
T13 sequence (Q5T2W1 373-468, limits assumed, looked up): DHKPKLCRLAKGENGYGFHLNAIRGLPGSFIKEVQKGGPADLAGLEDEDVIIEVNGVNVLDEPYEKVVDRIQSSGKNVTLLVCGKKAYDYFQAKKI

B1: MTNR1A, P48039 (peptide)
chain: NNNVVKVDSV
B2: GRIA2, P42262 (peptide)
chain: NVYGIESVKI
B3: MKNK1, Q9BUB5 (peptide)
chain: GEDRSPPTAL
B4: KIRREL2, Q6UWL6 (peptide)
chain: PSHPRLQTHV
B5: SLC16A7, O60669 (peptide)
chain: SVTSERETNI
B6: RPS6KA3, P51812 (peptide)
chain: GIKKITSTAL

How the values were obtained:
Assay in all cases: holdup assay
Set-up in all cases: key: below the threshold = too weak to quantify, mostly under pKd 3.1 to 4
Details in all cases: plain residues with an end cap or a label only (N-terminal biotin on a linker: ado-ado)
PARD3B_1, Q8TEW8 = target: T1, PARD3B_1, Q8TEW8
MAST1, Q9Y2H9 = target: MAST1, Q9Y2H9
Chain of MAST1, Q9Y2H9 (Q9Y2H9 962-1065): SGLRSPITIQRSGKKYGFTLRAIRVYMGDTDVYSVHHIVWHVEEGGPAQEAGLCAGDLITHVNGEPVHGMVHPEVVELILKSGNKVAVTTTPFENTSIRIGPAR

LNX2_3, Q8N448 = target: T2, LNX2_3, Q8N448
LNX1_3, Q8TBB1 = target: LNX1_3, Q8TBB1
Chain of LNX1_3, Q8TBB1 (Q8TBB1 500-596): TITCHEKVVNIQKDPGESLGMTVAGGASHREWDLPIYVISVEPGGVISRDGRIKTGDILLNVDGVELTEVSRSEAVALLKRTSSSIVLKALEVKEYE

Inadl_3, Q8NI35 = target: Inadl_3, Q8NI35
Chain of Inadl_3, Q8NI35 (Q8NI35 359-469): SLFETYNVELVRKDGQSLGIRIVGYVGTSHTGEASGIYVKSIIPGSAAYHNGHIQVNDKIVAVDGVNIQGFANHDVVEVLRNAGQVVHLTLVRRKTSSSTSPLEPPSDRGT

FRMPD2_1, Q68DX3 = target: FRMPD2_1, Q68DX3
Chain of FRMPD2_1, Q68DX3 (Q68DX3 770-861): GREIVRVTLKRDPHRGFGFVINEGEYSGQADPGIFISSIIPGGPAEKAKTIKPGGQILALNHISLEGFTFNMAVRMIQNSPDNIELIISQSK

GRIP1_7, Q9Y3R0 = target: T3, GRIP1_7, Q9Y3R0
ARHGAP21, Q5T5U3 = target: T4, ARHGAP21, Q5T5U3
IL16_3, Q14005 = target: IL16_3, Q14005
Chain of IL16_3, Q14005 (Q14005 1107-1207): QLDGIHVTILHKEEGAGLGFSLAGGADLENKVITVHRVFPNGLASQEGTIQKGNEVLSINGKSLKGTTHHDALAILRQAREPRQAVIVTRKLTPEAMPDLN

GRIP1_2, Q9Y3R0 = target: T5, GRIP1_2, Q9Y3R0
GRIP2_5, Q9C0E4 = target: GRIP2_5, Q9C0E4
Chain of GRIP2_5, Q9C0E4 (Q9C0E4 544-642): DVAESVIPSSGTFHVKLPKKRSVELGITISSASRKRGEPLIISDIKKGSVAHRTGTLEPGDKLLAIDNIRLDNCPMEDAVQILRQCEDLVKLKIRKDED

PCLO, Q9Y6V0 = target: T6, PCLO, Q9Y6V0
ARHGEF11, O15085 = target: T7, ARHGEF11, O15085
MAGI2_3, Q86UL8 = target: MAGI2_3, Q86UL8
Chain of MAGI2_3, Q86UL8 (Q86UL8 600-682): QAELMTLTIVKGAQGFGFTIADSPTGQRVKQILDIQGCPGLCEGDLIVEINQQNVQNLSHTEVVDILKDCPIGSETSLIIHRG

MPDZ_12, O75970 = target: T8, MPDZ_12, O75970
SIPA1L2, Q9P2F8 = target: T9, SIPA1L2, Q9P2F8
SNTB1, Q13884 = target: T10, SNTB1, Q13884
MAGI2_6, Q86UL8 = target: MAGI2_6, Q86UL8
Chain of MAGI2_6, Q86UL8 (Q86UL8 1141-1229): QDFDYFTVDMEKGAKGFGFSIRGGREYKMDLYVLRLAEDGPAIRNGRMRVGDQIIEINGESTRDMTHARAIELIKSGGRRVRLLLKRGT

MPDZ_10, O75970 = target: T11, MPDZ_10, O75970
DLG4_2, P78352 = target: DLG4_2, P78352
Chain of DLG4_2, P78352 (P78352 155-259): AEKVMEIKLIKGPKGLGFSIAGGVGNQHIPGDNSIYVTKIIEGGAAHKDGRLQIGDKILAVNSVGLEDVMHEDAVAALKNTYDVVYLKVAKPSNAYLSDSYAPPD

IL16_4, Q14005 = target: IL16_4, Q14005
Chain of IL16_4, Q14005 (Q14005 1229-1329): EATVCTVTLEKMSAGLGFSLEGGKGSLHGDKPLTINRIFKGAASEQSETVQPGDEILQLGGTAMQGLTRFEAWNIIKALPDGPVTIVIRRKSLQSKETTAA

DFNB31_3, Q9P202 = target: T12, DFNB31_3, Q9P202
LAP2, Q96RT1 = target: LAP2, Q96RT1
Chain of LAP2, Q96RT1 (Q96RT1 other isoform, or with tags, fused parts or gaps): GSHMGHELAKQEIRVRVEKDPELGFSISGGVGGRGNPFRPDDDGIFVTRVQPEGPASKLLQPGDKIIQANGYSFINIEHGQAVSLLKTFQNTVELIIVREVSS

NHERF3_4, Q5T2W1 = target: T13, NHERF3_4, Q5T2W1

Row | Binder | pKd (PARD3B_1, Q8TEW8) | pKd (MAST1, Q9Y2H9) | pKd (LNX2_3, Q8N448) | pKd (LNX1_3, Q8TBB1) | pKd (Inadl_3, Q8NI35) | pKd (FRMPD2_1, Q68DX3) | pKd (GRIP1_7, Q9Y3R0) | pKd (ARHGAP21, Q5T5U3) | pKd (IL16_3, Q14005) | pKd (GRIP1_2, Q9Y3R0) | pKd (GRIP2_5, Q9C0E4) | pKd (PCLO, Q9Y6V0) | pKd (ARHGEF11, O15085) | pKd (MAGI2_3, Q86UL8) | pKd (MPDZ_12, O75970) | pKd (SIPA1L2, Q9P2F8) | pKd (SNTB1, Q13884) | pKd (MAGI2_6, Q86UL8) | pKd (MPDZ_10, O75970) | pKd (DLG4_2, P78352) | other results
1 | B1 | below the threshold | below the threshold | below the threshold | below the threshold | below the threshold | below the threshold | below the threshold | below the threshold | below the threshold | below the threshold | below the threshold | below the threshold | below the threshold | below the threshold | below the threshold | below the threshold | below the threshold | below the threshold | 3.68 | below the threshold | pKd (IL16_4, Q14005): 3.5; pKd (DFNB31_3, Q9P202): 3.93; pKd (LAP2, Q96RT1): below the threshold; pKd (NHERF3_4, Q5T2W1): below the threshold
2 | B2 | 5.1 | 4.27 | below the threshold | below the threshold | below the threshold | 3.56 | below the threshold | below the threshold | below the threshold | below the threshold | below the threshold | below the threshold | 3.58 | below the threshold | 3.61 | below the threshold | 3.51 | below the threshold | 3.57 | 3.73 | pKd (IL16_4, Q14005): below the threshold; pKd (DFNB31_3, Q9P202): below the threshold; pKd (LAP2, Q96RT1): 3.56; pKd (NHERF3_4, Q5T2W1): 3.75
3 | B3 | 3.63 | 4.1 | below the threshold | below the threshold | below the threshold | below the threshold | below the threshold | below the threshold | below the threshold | below the threshold | below the threshold | below the threshold | 4.01 | below the threshold | below the threshold | below the threshold | 3.51 | 3.57 | below the threshold | below the threshold | pKd (IL16_4, Q14005): below the threshold; pKd (DFNB31_3, Q9P202): below the threshold; pKd (LAP2, Q96RT1): below the threshold; pKd (NHERF3_4, Q5T2W1): 3.7
4 | B4 | below the threshold | 4.5 | below the threshold | below the threshold | below the threshold | below the threshold | below the threshold | below the threshold | below the threshold | below the threshold | below the threshold | below the threshold | 4.06 | 3.67 | below the threshold | below the threshold | 3.48 | below the threshold | below the threshold | 4.48 | pKd (IL16_4, Q14005): below the threshold; pKd (DFNB31_3, Q9P202): 4; pKd (LAP2, Q96RT1): below the threshold; pKd (NHERF3_4, Q5T2W1): below the threshold
5 | B5 | below the threshold | 4.14 | below the threshold | below the threshold | below the threshold | below the threshold | below the threshold | below the threshold | below the threshold | below the threshold | below the threshold | below the threshold | below the threshold | below the threshold | below the threshold | below the threshold | 5.38 | 3.5 | below the threshold | 4.11 | pKd (IL16_4, Q14005): 3.49; pKd (DFNB31_3, Q9P202): 3.97; pKd (LAP2, Q96RT1): below the threshold; pKd (NHERF3_4, Q5T2W1): below the threshold
6 | B6 | 4.05 | 5.06 | 3.49 | below the threshold | below the threshold | 3.54 | 3.56 | 3.93 | below the threshold | 3.5 | 3.8 | below the threshold | 5.01 | 3.51 | below the threshold | below the threshold | 4.23 | 4.08 | 3.59 | 4.18 | pKd (IL16_4, Q14005): 3.78; pKd (DFNB31_3, Q9P202): 4.23; pKd (LAP2, Q96RT1): below the threshold; pKd (NHERF3_4, Q5T2W1): 5.4
